Laboratory results published in article PMC5943054.

Target: TgPLP1 MACPF domain (residues 462 to 809, N720Q/N744Q), trypsinized in situ (TMH2 cut away) (Toxoplasma gondii) (UniProt V5BCL0)
Test: crystal structure; second crystal form of the trypsinized MACPF domain, about 5 Å (5.0 in text, 5.11 in Table 1); 0.1 M Hepes pH 7.5, 10% alcohol mixture, 15% PEG-1000, 15% PEG-3350, 15% MPD; ring assembly, rigid-body refinement only

Substance: TgPLP1 MACPF domain (residues 462 to 809, N720Q/N744Q), trypsinized in situ (TMH2 cut away) (from UniProt V5BCL0 462-809) (domain or fragment)
- stoichiometry N: 6
